Test results from article PMC10397247.
Read-outs that look alike come from different tables or passages of the source.

Assays:
Experiment in all cases: two-hybrid library CCmax;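 note: natural log of median RNA to DNA barcode read ratio; higher means stronger binding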
4H3969-AA = target: T1, 4H3969-AA; conditions: mean of both orientations
T1 chain: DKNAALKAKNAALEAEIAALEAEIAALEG

4H341-AA = target: T2, 4H341-AA; conditions: mean of both orientations
T2 chain: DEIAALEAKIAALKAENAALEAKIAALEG

4H3782-AA = target: T3, 4H3782-AA; conditions: mean of both orientations
T3 chain: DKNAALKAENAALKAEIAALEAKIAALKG

4H483-AA = target: T4, 4H483-AA; conditions: mean of both orientations
T4 chain: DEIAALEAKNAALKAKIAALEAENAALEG

4H63-AA = target: T5, 4H63-AA
T5 chain: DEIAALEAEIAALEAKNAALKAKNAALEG

4H3595-AA = target: T6, 4H3595-AA
T6 chain: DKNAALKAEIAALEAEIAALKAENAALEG

4H3939-AA = target: T7, 4H3939-AA; conditions: mean of both orientations
T7 chain: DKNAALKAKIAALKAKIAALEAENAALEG

4H3414-AA = target: T8, 4H3414-AA; conditions: mean of both orientations
T8 chain: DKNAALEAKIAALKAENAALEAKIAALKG

4H3629-AA = target: T9, 4H3629-AA
T9 chain: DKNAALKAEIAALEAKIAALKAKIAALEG

4H380-AA = target: T10, 4H380-AA; conditions: mean of both orientations
T10 chain: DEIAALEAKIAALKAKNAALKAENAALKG

4H464-AA = target: T11, 4H464-AA; conditions: mean of both orientations
T11 chain: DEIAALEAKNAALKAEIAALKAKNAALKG

4H446-AA = target: T12, 4H446-AA; conditions: mean of both orientations
T12 chain: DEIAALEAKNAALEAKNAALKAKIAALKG

4H3129-AA = target: T13, 4H3129-AA
T13 chain: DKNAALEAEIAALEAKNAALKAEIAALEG

4H3094-AA = target: T14, 4H3094-AA; conditions: mean of both orientations
T14 chain: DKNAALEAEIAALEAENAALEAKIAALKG

4H3619-AA = target: T15, 4H3619-AA; conditions: mean of both orientations
T15 chain: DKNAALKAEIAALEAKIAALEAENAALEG

4H3777-AA = target: T16, 4H3777-AA; conditions: mean of both orientations
T16 chain: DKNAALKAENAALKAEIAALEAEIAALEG

4H3915-AA = target: T17, 4H3915-AA; conditions: mean of both orientations
T17 chain: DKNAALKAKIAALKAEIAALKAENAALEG

4H324-AA = target: T18, 4H324-AA; conditions: mean of both orientations
T18 chain: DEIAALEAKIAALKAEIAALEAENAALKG

4H2961-AA = target: T19, 4H2961-AA
T19 chain: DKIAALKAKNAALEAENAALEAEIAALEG

4H3974-AA = target: T20, 4H3974-AA; conditions: mean of both orientations
T20 chain: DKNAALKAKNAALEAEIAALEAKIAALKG

4H3049-AA = target: T21, 4H3049-AA; conditions: mean of both orientations
T21 chain: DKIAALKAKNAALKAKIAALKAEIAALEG

4H432-AA = target: T22, 4H432-AA; conditions: mean of both orientations
T22 chain: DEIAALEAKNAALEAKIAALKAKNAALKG

4H3449-AA = target: T23, 4H3449-AA; conditions: mean of both orientations
T23 chain: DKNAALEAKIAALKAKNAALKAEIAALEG

4H3130-AA = target: T24, 4H3130-AA; conditions: mean of both orientations
T24 chain: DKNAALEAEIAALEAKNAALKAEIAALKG

4H3395-AA = target: T25, 4H3395-AA; conditions: mean of both orientations
T25 chain: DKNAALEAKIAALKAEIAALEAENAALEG

4H3381-AA = target: T26, 4H3381-AA; conditions: mean of both orientations
T26 chain: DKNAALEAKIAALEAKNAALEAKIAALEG

4H458-AA = target: T27, 4H458-AA; conditions: mean of both orientations
T27 chain: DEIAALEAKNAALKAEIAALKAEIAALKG

4H3697-AA = target: T28, 4H3697-AA; conditions: mean of both orientations
T28 chain: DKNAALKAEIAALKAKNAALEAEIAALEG

4H2473-AA = target: T29, 4H2473-AA; conditions: mean of both orientations
T29 chain: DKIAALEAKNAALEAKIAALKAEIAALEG

4H745-AA = target: T30, 4H745-AA; conditions: mean of both orientations
T30 chain: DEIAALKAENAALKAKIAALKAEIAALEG

4H3590-AA = target: T31, 4H3590-AA; conditions: mean of both orientations
T31 chain: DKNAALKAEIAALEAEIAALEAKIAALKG

4H94-AA = target: T32, 4H94-AA; conditions: mean of both orientations
T32 chain: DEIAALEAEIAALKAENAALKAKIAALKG

4H891-AA = target: T33, 4H891-AA; conditions: mean of both orientations
T33 chain: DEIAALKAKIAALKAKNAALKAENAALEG

4H930-AA = target: T34, 4H930-AA; conditions: mean of both orientations
T34 chain: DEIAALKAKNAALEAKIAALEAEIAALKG

4H850-AA = target: T35, 4H850-AA; conditions: mean of both orientations
T35 chain: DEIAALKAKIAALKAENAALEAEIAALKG

4H2865-AA = target: T36, 4H2865-AA; conditions: mean of both orientations
T36 chain: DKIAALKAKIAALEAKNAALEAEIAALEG

4H570-AA = target: T37, 4H570-AA; conditions: mean of both orientations
T37 chain: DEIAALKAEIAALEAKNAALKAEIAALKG

4H485-AA = target: T38, 4H485-AA; conditions: mean of both orientations
T38 chain: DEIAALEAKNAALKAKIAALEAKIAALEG

4H2438-AA = target: T39, 4H2438-AA
T39 chain: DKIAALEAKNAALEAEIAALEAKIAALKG

4H2649-AA = target: T40, 4H2649-AA; conditions: mean of both orientations
T40 chain: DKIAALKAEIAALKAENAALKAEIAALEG

4H310-AA = target: T41, 4H310-AA; conditions: mean of both orientations
T41 chain: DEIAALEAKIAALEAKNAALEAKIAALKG

4H909-AA = target: T42, 4H909-AA; conditions: mean of both orientations
T42 chain: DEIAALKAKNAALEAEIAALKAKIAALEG

4H536-AA = target: T43, 4H536-AA; conditions: mean of both orientations
T43 chain: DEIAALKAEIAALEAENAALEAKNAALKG

4H710-AA = target: T44, 4H710-AA
T44 chain: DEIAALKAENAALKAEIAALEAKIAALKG

4H2725-AA = target: T45, 4H2725-AA; conditions: mean of both orientations
T45 chain: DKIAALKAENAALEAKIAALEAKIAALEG

4H2698-AA = target: T46, 4H2698-AA; conditions: mean of both orientations
T46 chain: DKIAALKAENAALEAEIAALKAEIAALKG

4H3016-AA = target: T47, 4H3016-AA; conditions: mean of both orientations
T47 chain: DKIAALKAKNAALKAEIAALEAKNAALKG

4H3120-AA = target: T48, 4H3120-AA; conditions: mean of both orientations
T48 chain: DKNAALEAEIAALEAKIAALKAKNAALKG

4H3009-AA = target: T49, 4H3009-AA; conditions: mean of both orientations
T49 chain: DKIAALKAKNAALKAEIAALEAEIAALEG

4H3410-AA = target: T50, 4H3410-AA; conditions: mean of both orientations
T50 chain: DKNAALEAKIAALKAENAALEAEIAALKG

4H3165-AA = target: T51, 4H3165-AA; conditions: mean of both orientations
T51 chain: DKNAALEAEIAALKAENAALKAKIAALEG

4H3753-AA = target: T52, 4H3753-AA; conditions: mean of both orientations
T52 chain: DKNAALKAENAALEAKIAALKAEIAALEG

4H797-AA = target: T53, 4H797-AA; conditions: mean of both orientations
T53 chain: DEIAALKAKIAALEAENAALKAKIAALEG

4H629-AA = target: T54, 4H629-AA; conditions: mean of both orientations
T54 chain: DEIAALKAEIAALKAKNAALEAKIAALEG

4H3865-AA = target: T55, 4H3865-AA; conditions: mean of both orientations
T55 chain: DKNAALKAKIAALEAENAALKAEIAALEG

## DKNAALEAEIAALEAKNAALKAEIAALEG [4H3129-AA]
4H3969-AA
  interaction score: -1.84
4H341-AA
  interaction score: 2.19
4H3782-AA
  interaction score: -1.55
4H483-AA
  interaction score: -2.19
4H63-AA; mean of both orientations
  interaction score: -2.14
4H3595-AA; mean of both orientations
  interaction score: -1.39
4H3939-AA
  interaction score: -1.82
4H3414-AA
  interaction score: 2.24
4H3629-AA; mean of both orientations
  interaction score: -0.839
4H380-AA
  interaction score: -1.83
4H464-AA
  interaction score: -1.78
4H446-AA
  interaction score: -2.05
4H3129-AA
  interaction score: -1.5

## DKIAALKAKNAALEAENAALEAEIAALEG [4H2961-AA]
4H3969-AA
  interaction score: -1.8
4H341-AA
  interaction score: -0.961
4H3782-AA
  interaction score: -1.44
4H483-AA
  interaction score: -1.35
4H63-AA
  interaction score: -1.2
4H3094-AA
  interaction score: -1.08
4H3595-AA
  interaction score: -1.7
4H3619-AA
  interaction score: -1.98
4H3939-AA
  interaction score: -1.84
4H3777-AA
  interaction score: -1.97
4H3915-AA
  interaction score: -1.91
4H3414-AA
  interaction score: -1.46
4H3629-AA
  interaction score: -1.26
4H324-AA
  interaction score: -1.69
4H380-AA
  interaction score: -1.56
4H2961-AA
  interaction score: -1.84
4H3974-AA
  interaction score: -1.82
4H464-AA
  interaction score: -0.618
4H446-AA
  interaction score: 1.97
4H3049-AA
  interaction score: 1.02
4H432-AA
  interaction score: -0.0165
4H3129-AA; mean of both orientations
  interaction score: -1.5
4H3449-AA
  interaction score: -1.67

## DKIAALEAKNAALEAEIAALEAKIAALKG [4H2438-AA]
4H3130-AA
  interaction score: -0.561
4H3395-AA
  interaction score: 0.314
4H3381-AA
  interaction score: -1.06
4H458-AA
  interaction score: 2.03
4H3697-AA
  interaction score: -1.23
4H2473-AA
  interaction score: 1.99
4H745-AA
  interaction score: 1.6
4H3590-AA
  interaction score: -0.136
4H94-AA
  interaction score: 1.28
4H891-AA
  interaction score: -1.67
4H930-AA
  interaction score: 0.452
4H850-AA
  interaction score: 0.962
4H2865-AA
  interaction score: -0.236
4H570-AA
  interaction score: 0.233
4H485-AA
  interaction score: 2.05
4H2438-AA
  interaction score: 1.62
4H2649-AA
  interaction score: -0.664
4H310-AA
  interaction score: -0.376
4H909-AA
  interaction score: 0.42
4H536-AA
  interaction score: -1.47
4H710-AA
  interaction score: -0.823
4H2725-AA
  interaction score: 1.32
4H2698-AA
  interaction score: 1.25
4H3016-AA
  interaction score: -0.613
4H3120-AA
  interaction score: -0.892
4H3009-AA
  interaction score: 1.88
4H3410-AA
  interaction score: 0.0321
4H3165-AA
  interaction score: -1.17
4H3753-AA
  interaction score: 1.89
4H797-AA
  interaction score: -1.67
4H629-AA
  interaction score: -1.42
4H3865-AA
  interaction score: -1.16
